The source of these data is PMC8448962 (Neuron, 2021).

The data set concerns the molecule itself. Nature of the data set: crystal structure.

B1: Human TRAAK A198E, crystallisation construct (C-terminally truncated, N104Q/N108Q) (domain or fragment)
chain: MTTAPQEPPARPLQAGSGAGPAPGRAMRSTTLLALLALVLLYLVSGALVFRALEQPHEQQAQRELGEVREKFLRAHPCVSDQELGLLIKEVADALGGGADPETQSTSQSSHSAWDLGSAFFFSGTIITTIGYGNVALRTDAGRLFCIFYALVGIPLFGILLAGVGDRLGSSLRHGIGHIEAIFLKWHVPPELVRVLSEMLFLLIGCLLFVLTPTFVFCYMEDWSKLEAIYFVIVTLTTVGFGDYVAGADPRQDSPAYQPLVWFWILLGLAYFASVLTTIGNWLRVVSRRTRAEMGGLTAQSNSLEVLFQ
Take B1: the “stoichiometry N” value worked out at 2.

One may read the stoichiometry N as a count of units in the complex or per binding partner.
